Drawing on doi:10.1101/2025.06.28.662095, this text covers stoichiometry N for one substance.

In test [1] the target is MtSteAΔTM (M. tuberculosis SteA truncated soluble construct, residues 12-344) (Mycobacterium tuberculosis). In words: SEC-SLS.
For test [2] the target is unchanged. The experiment in a line: crystal structure.

In the case of “MtSteAΔTM (M. tuberculosis SteA truncated soluble construct, residues 12-344) (domain or fragment)”, the stoichiometry N in test [1] and in test [2] was 2 in each case.
